Results: the supplement of paper PMC10567573

B1: MYBL2 (parent)
chain: VKKSCWTEEEDRIICEAHKVLGNR

Variants of: B1
Assay: protein stability index of a GFP-peptide fusion (GPS, HEK-293T) (PSI 1-6); higher = more stable
Settings: c terminus: a fixed tail appended
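Further: lentivirally expressed fusions sorted by FACS into six bins by GFP to DsRed ratio, PSI derived from sequencing read proportions per bin multiplied by bin number.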

Variant | protein stability index
VKKSCWTSEEDRIICEAHKVLGNR [E8S] | 3.51
VKKSCWTDEEDRIICEAHKVLGNR [E8D] | 3.11
VKKSCWTNEEDRIICEAHKVLGNR [E8N] | 4.1
VKKSCWTPEEDRIICEAHKVLGNR [E8P] | 3.4
VKKSCWTMEEDRIICEAHKVLGNR [E8M] | 3.37
VKKSCWTKEEDRIICEAHKVLGNR [E8K] | 3.17
VKKSCWTFEEDRIICEAHKVLGNR [E8F] | 2.48
VKKSCWTREEDRIICEAHKVLGNR [E8R] | 2.9
VKKSCWTIEEDRIICEAHKVLGNR [E8I] | 1.85
VKKSCWTYEEDRIICEAHKVLGNR [E8Y] | 2.79
VKKSCWTAEEDRIICEAHKVLGNR [E8A] | 3.12
VKKSCWTVEEDRIICEAHKVLGNR [E8V] | 2.85
VKKSCWTHEEDRIICEAHKVLGNR [E8H] | 3.33
VKKSCWTCEEDRIICEAHKVLGNR [E8C] | 2.61
VKKSCWTWEEDRIICEAHKVLGNR [E8W] | 2.47
VKKSCWTTEEDRIICEAHKVLGNR [E8T] | 2.45
VKKSCWTQEEDRIICEAHKVLGNR [E8Q] | 3.5
VKKSCWTGEEDRIICEAHKVLGNR [E8G] | 2.44
VKKSCWTLEEDRIICEAHKVLGNR [E8L] | 2.69
VKKSCWTEHEDRIICEAHKVLGNR [E9H] | 2.69
VKKSCWTEKEDRIICEAHKVLGNR [E9K] | 3.37
VKKSCWTEGEDRIICEAHKVLGNR [E9G] | 2.8
VKKSCWTEWEDRIICEAHKVLGNR [E9W] | 2.35
VKKSCWTECEDRIICEAHKVLGNR [E9C] | 2.6

Variant | protein stability index
VKKSCWTEDEDRIICEAHKVLGNR [E9D] | 3.34
VKKSCWTEAEDRIICEAHKVLGNR [E9A] | 2.59
VKKSCWTEPEDRIICEAHKVLGNR [E9P] | 2.82
VKKSCWTEVEDRIICEAHKVLGNR [E9V] | 2.45
VKKSCWTEMEDRIICEAHKVLGNR [E9M] | 2.1
VKKSCWTESEDRIICEAHKVLGNR [E9S] | 2.66
VKKSCWTENEDRIICEAHKVLGNR [E9N] | 3.3
VKKSCWTEREDRIICEAHKVLGNR [E9R] | 2.58
VKKSCWTELEDRIICEAHKVLGNR [E9L] | 2.98
VKKSCWTEYEDRIICEAHKVLGNR [E9Y] | 2.16
VKKSCWTETEDRIICEAHKVLGNR [E9T] | 3.28
VKKSCWTEIEDRIICEAHKVLGNR [E9I] | 2.57
VKKSCWTEQEDRIICEAHKVLGNR [E9Q] | 3.45
VKKSCWTEFEDRIICEAHKVLGNR [E9F] | 2.31
VKKSCRTEEEDRIICEAHKVLGNR [W6R] | 3.87
VKKSCSTEEEDRIICEAHKVLGNR [W6S] | 4.09
VKKSCTTEEEDRIICEAHKVLGNR [W6T] | 3.94
VKKSCPTEEEDRIICEAHKVLGNR [W6P] | 4.4
VKKSCYTEEEDRIICEAHKVLGNR [W6Y] | 3.5
VKKSCQTEEEDRIICEAHKVLGNR [W6Q] | 4.36
VKKSCVTEEEDRIICEAHKVLGNR [W6V] | 3.5
VKKSCWTEEEARIICEAHKVLGNR [D11A] | 2.95
VKKSCWTEEEHRIICEAHKVLGNR [D11H] | 3.57
VKKSCWTEEELRIICEAHKVLGNR [D11L] | 2.21

Variant | protein stability index
VKKSCWTEEEERIICEAHKVLGNR [D11E] | 3.43
VKKSCWTEEEFRIICEAHKVLGNR [D11F] | 1.59
VKKSCWTEEECRIICEAHKVLGNR [D11C] | 2.53
VKKSCWTEEENRIICEAHKVLGNR [D11N] | 3.72
VKKSCWTEEEGRIICEAHKVLGNR [D11G] | 3.01
VKKSCWTEEEMRIICEAHKVLGNR [D11M] | 2.12
VKKSCWTEEEKRIICEAHKVLGNR [D11K] | 2.74
VKKSCWTEEEIRIICEAHKVLGNR [D11I] | 1.71
VKKSCWTEESDRIICEAHKVLGNR [E10S] | 2.96
VKKSCWTEELDRIICEAHKVLGNR [E10L] | 2.06
VKKSCWTEEQDRIICEAHKVLGNR [E10Q] | 3.26
VKKSCWTEEKDRIICEAHKVLGNR [E10K] | 2.99
VKKSCWTEERDRIICEAHKVLGNR [E10R] | 2.65
VKKSCWTEEGDRIICEAHKVLGNR [E10G] | 3.15
VKKSCWTEEDDRIICEAHKVLGNR [E10D] | 3.1
VKKSCWTEECDRIICEAHKVLGNR [E10C] | 2.27
VKKSCWTEEHDRIICEAHKVLGNR [E10H] | 3.08
VKKSCWTEEFDRIICEAHKVLGNR [E10F] | 1.99
VKKSCWTEEVDRIICEAHKVLGNR [E10V] | 2.13
VKKSCWTEENDRIICEAHKVLGNR [E10N] | 3.21
VKKSCWTEEIDRIICEAHKVLGNR [E10I] | 2.39
VKKSCWTEEPDRIICEAHKVLGNR [E10P] | 2.99
VKKSCWTEEADRIICEAHKVLGNR [E10A] | 2.38
VKKSCWTEETDRIICEAHKVLGNR [E10T] | 2.47

Variant | protein stability index
VKKSCWTEEYDRIICEAHKVLGNR [E10Y] | 2.28
VKKSCWTEEWDRIICEAHKVLGNR [E10W] | 1.78
VKKSCWTEEMDRIICEAHKVLGNR [E10M] | 1.99
VKKSCWWEEEDRIICEAHKVLGNR [T7W] | 2.32
VKKSCWCEEEDRIICEAHKVLGNR [T7C] | 3.05
VKKSCWYEEEDRIICEAHKVLGNR [T7Y] | 2.93
VKKSCWGEEEDRIICEAHKVLGNR [T7G] | 3.02
VKKSCWQEEEDRIICEAHKVLGNR [T7Q] | 2.59
VKKSCWIEEEDRIICEAHKVLGNR [T7I] | 4
VKKSCWVEEEDRIICEAHKVLGNR [T7V] | 3.54
VKKSCWEEEEDRIICEAHKVLGNR [T7E] | 2.82
VKKSCWKEEEDRIICEAHKVLGNR [T7K] | 3.51
VKKSCWHEEEDRIICEAHKVLGNR [T7H] | 2.95
VKKSCWDEEEDRIICEAHKVLGNR [T7D] | 3.76
VKKSCWAEEEDRIICEAHKVLGNR [T7A] | 2.98
VKKSCWSEEEDRIICEAHKVLGNR [T7S] | 2.83
VKKSCWLEEEDRIICEAHKVLGNR [T7L] | 3.11
VKKSCWMEEEDRIICEAHKVLGNR [T7M] | 3.03
VKKSCWNEEEDRIICEAHKVLGNR [T7N] | 3.14
VKKSCWPEEEDRIICEAHKVLGNR [T7P] | 3.65
VKKSCWFEEEDRIICEAHKVLGNR [T7F] | 2.2
VKKSCWREEEDRIICEAHKVLGNR [T7R] | 3.59
